Assay results published in patent US20220259593A1, “CONTROL OF MAMMALIAN GENE DOSAGE USING CRISPR” (The Regents of the University of California, priority 2019, published 2022).
Where a chain is given by its changes, count along the chain named.

B1: cr354 (nucleic acid)
guide: GTTTAAGAGCTAAGCTGGAAACAGCATAGCAAGTTTAAATAAGGCTAGTCCGTTATCAGCTTGAAAAAGCGATACCGAGTCGGTATT
modifications: listed as DNA, chemistry not fully specified
B2: cr494 (nucleic acid)
guide: B1 guide with G59A, A67T, C70T, A72G, T73C, A85G, T86C
modifications: listed as DNA, chemistry not fully specified
B3: cr234 (nucleic acid)
guide: B1 guide with G59A, T62C, C70T, A72G, T73C, A85G, T86C
modifications: listed as DNA, chemistry not fully specified
B4: cr302 (nucleic acid)
guide: B1 guide with G59A, T61G, A68C, C70T, A72G, A74C, T84G, T86C
modifications: listed as DNA, chemistry not fully specified
B5: cr113 (nucleic acid)
guide: B1 guide with A55T, G59A, C70T, A72G, T73C, A85G, T86C
modifications: listed as DNA, chemistry not fully specified
B6: cr941 (nucleic acid)
guide: B1 guide with G59A, C60A, T62G, A67C, G69T, C70T, T73C, A85G
modifications: listed as DNA, chemistry not fully specified
B7: cr655 (nucleic acid)
guide: B1 guide with T54C, G59A, C70T, A72G, T73C, A85G, T86C
modifications: listed as DNA, chemistry not fully specified
B8: cr619 (nucleic acid)
guide: B1 guide with G59A, A64G, C70T, A72G, T73C, A85G, T86C
modifications: listed as DNA, chemistry not fully specified
B9: cr121 (nucleic acid)
guide: B1 guide with G59T, T61A, A68T, C70A, A72G, T73C, A85G, T86C
modifications: listed as DNA, chemistry not fully specified
B10: cr820 (nucleic acid)
guide: B1 guide with G59A, T62G, A65G, A67C, C70T, A72G, T73C, A85G, T86C
modifications: listed as DNA, chemistry not fully specified
B11: cr898 (nucleic acid)
guide: B1 guide with A32C, G59A, A65G, C70T, A72G, T73C, A85G, T86C
modifications: listed as DNA, chemistry not fully specified
B12: cr239 (nucleic acid)
guide: B1 guide with T53C, G59A, A64T, C70T, A72G, T73C, A85G, T86C
modifications: listed as DNA, chemistry not fully specified
B13: cr980 (nucleic acid)
guide: B1 guide with T53C, G59A, C70T, A72G, T73C, A85G, T86C
modifications: listed as DNA, chemistry not fully specified
B14: cr428 (nucleic acid)
guide: B1 guide with G59A, A64C, A66T, C70T, A72G, T73C, A85G, T86C
modifications: listed as DNA, chemistry not fully specified
B15: cr433 (nucleic acid)
guide: B1 guide with G59A, A66T, C70T, A72G, T73C, A85G, T86C
modifications: listed as DNA, chemistry not fully specified
B16: cr377 (nucleic acid)
guide: B1 guide with T56G, G59A, C70T, A72G, T73C, A85G, T86C
modifications: listed as DNA, chemistry not fully specified
B17: cr423 (nucleic acid)
guide: B1 guide with A72G, T86C
modifications: listed as DNA, chemistry not fully specified
B18: cr690 (nucleic acid)
guide: B1 guide with T27G, G59A, C70T, A72G, T73C, A85G, T86C
modifications: listed as DNA, chemistry not fully specified
B19: cr037 (nucleic acid)
guide: B1 guide with G7T, A8C, G59A, C70T, A72G, T73C, A85G, T86C
modifications: listed as DNA, chemistry not fully specified
B20: cr642 (nucleic acid)
guide: B1 guide with A32T, G59A, C70T, A72G, T73C, A85G, T86C
modifications: listed as DNA, chemistry not fully specified
B21: cr715 (nucleic acid)
guide: B1 guide with A31G, G59A, C70T, A72G, T73C, A85G, T86C
modifications: listed as DNA, chemistry not fully specified
B22: cr632 (nucleic acid)
guide: B1 guide with G59A, A64C, A66G, C70T, A72G, T73C, A85G, T86C
modifications: listed as DNA, chemistry not fully specified
B23: cr348 (nucleic acid)
guide: B1 guide with A21G, G59A, C70T, A72G, T73C, A85G, T86C
modifications: listed as DNA, chemistry not fully specified
B24: cr936 (nucleic acid)
guide: B1 guide with G59A, C70T, A72T, T73C, A85G, T86A
modifications: listed as DNA, chemistry not fully specified
B25: cr510 (nucleic acid)
guide: B1 guide with G59T, C60G, G69C, C70A, A72G, T73C, A85G, T86C
modifications: listed as DNA, chemistry not fully specified
B26: cr771 (nucleic acid)
guide: B1 guide with G59A, A65G, C70T, A72C, T73C, A85G, T86G
modifications: listed as DNA, chemistry not fully specified
B27: cr606 (nucleic acid)
guide: GTTTAAGAGCTAAGCTGGAAACAGCATAGCAAGTTTAAATAAGGCTAGTCCGTTATCAAGTTGAAAAACTGGCCTCGAGTCGAGGCT
modifications: listed as DNA, chemistry not fully specified
B28: cr144 (nucleic acid)
guide: B27 guide with A59T, T62A, A67T, T70A, C74A, T75C, A83G, G84T
modifications: listed as DNA, chemistry not fully specified
B29: cr559 (nucleic acid)
guide: B1 guide with G59A, C70T, A72G, T86C
modifications: listed as DNA, chemistry not fully specified
B30: cr365 (nucleic acid)
guide: B27 guide with T54A, G60C, C69G, C74A, T75C, A83G, G84T
modifications: listed as DNA, chemistry not fully specified

Tested on: K562 CRISPRi cells
Assay: Constant region variant library pooled growth screen, K562
Assay type: cell-based, human
Conditions: sgRNA constant region variants
In short: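 Library of sgRNA constant-region variants, each paired with 36 targeting sequences (essential-gene and non-targeting), transduced in duplicate into K562 CRISPRi cells, puromycin-selected and grown 4–8 days at >2000× coverage. Activity per variant is its growth phenotype normalised to the same targeting sequence with unmodified constant region.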

[1] = relative to the original, un-modified constant region cr995 (= 1)
[2] = activity relative to the original, un-modified constant region cr995

| Molecule | Mean relative activity [1] | Mean relative activity [2] |
| --- | --- | --- |
| B1 | 1.016 |  |
| B2 | 1.016 |  |
| B3 |  | 1.075 |
| B4 | 1.016 |  |
| B5 | 1.016 |  |
| B6 | 1.016 |  |
| B7 | 1.016 |  |
| B8 | 1.015 |  |
| B9 | 1.014 |  |
| B10 |  | 1.072 |
| B11 | 1.014 |  |
| B12 | 1.014 |  |
| B13 | 1.014 |  |
| B14 | 1.013 |  |
| B15 | 1.012 |  |
| B16 | 1.012 |  |
| B17 | 1.012 |  |
| B18 | 1.011 |  |
| B19 | 1.01 |  |
| B20 | 1.008 |  |
| B21 | 1.008 |  |
| B22 | 1.008 |  |
| B23 | 1.008 |  |
| B24 |  | 1.072 |
| B25 | 1.007 |  |
| B26 | 1.007 |  |
| B27 | 1.007 |  |
| B28 | 1.007 |  |
| B29 | 1.007 |  |
| B30 | 1.007 |  |
